The values below come from article PMC5652298 (Nature structural & molecular biology, 2017).

The target of test [1] is wild-type Shaker K+ channel with N-type inactivation removed (UniProt P08510). Nature of the test: […].
For test [2], the target named is 3/4V478W mutant Shaker concatemer channel. Put plainly: […].

In test [1], “wild-type AgTx2 (from UniProt P46111 1-38) (peptide)” returned a Kd of 2.5 nM.
Turning to GVPINVSCTGSPQCIKPCKDAGMRFGKCMNRKCHCTPK [wild-type AgTx2], binding in test [2] was characterised by a dissociation constant (Kd) of 9.2 nM. That is a single-digit nanomolar value.

As usually defined, the Kd is a measure of binding affinity in units of concentration. A high value points to lower affinity.
